This experiment concerns the target human CCR2b with the FLAG epitope at the extreme amino-terminus, stably expressed on HEK-293 cells (Example 10B) (human), P41597. The experiment can be described thus: cell-based or functional assay.

Sequence of human CCR2b with the FLAG epitope at the extreme amino-terminus, stably expressed on HEK-293 cells (Example 10B) (human), P41597 (P41597 whole entry): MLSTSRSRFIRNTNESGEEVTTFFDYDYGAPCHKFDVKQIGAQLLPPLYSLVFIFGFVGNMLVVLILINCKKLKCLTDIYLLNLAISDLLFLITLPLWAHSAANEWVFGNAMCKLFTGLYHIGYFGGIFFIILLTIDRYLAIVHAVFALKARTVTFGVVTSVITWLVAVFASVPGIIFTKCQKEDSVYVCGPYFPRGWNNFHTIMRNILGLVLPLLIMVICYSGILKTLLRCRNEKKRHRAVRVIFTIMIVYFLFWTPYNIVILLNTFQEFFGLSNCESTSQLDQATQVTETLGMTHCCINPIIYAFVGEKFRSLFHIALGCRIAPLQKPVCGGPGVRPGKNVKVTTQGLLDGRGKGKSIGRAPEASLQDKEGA

B1: murine MCP-5, predicted mature 82 amino acid protein beginning with the N-terminal glycine (E. coli, PeproTech), Q62401 23-104 (ligand)
chain: GPDAVSTPVTCCYNVVKQKIHVRKLKSYRRITSSQCPREAVIFRTILDKEICADPKEKWVKNSINHLDKTSQTFILEPSCLG
Take B1: the EC50 of intracellular calcium flux came to 5 nM.

The values above are taken from patent US6673915.
